Experimental data: article PMC9569990 (International Journal of Molecular Sciences, 2022)

T1: Interleukin-31 (human, UniProt Q6EBC2 24-164)
T1 construct: Interleukin-31, human, UniProt Q6EBC2; see the manufacturer's catalogue number; also called IL-31; source: bought: PeproTech (source E. coli)
T1 sequence (looked up): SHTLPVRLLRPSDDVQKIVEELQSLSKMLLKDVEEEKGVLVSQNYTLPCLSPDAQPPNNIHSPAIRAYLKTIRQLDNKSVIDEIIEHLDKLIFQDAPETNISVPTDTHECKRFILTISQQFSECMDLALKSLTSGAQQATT

T2: Interleukin-35 (human, UniProt P29459 23-219; Q14213 21-229)
T2 construct: the chain used for the SCOP family assignment; also called IL-35; source: bought: PeproTech (source HEK293)
T2 sequence (looked up) 1: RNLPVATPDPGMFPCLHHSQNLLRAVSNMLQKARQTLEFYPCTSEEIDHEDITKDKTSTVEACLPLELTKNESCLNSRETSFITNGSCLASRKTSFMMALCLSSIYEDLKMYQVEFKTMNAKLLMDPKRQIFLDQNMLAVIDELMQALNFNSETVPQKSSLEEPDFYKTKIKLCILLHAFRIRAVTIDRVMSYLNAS
T2 sequence (looked up) 2: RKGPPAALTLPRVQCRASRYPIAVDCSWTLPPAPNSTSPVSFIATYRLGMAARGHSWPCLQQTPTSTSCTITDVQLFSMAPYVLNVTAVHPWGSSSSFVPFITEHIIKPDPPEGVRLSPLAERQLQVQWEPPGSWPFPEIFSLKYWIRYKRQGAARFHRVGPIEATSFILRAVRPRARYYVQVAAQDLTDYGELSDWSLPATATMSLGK

T3: Interleukin-26 (human, UniProt Q9NPH9 22-171)
T3 construct: Interleukin-26, human, UniProt Q9NPH9; see the manufacturer's catalogue number; also called IL-26; source: bought: R&D Systems (source E. coli)
T3 sequence (looked up): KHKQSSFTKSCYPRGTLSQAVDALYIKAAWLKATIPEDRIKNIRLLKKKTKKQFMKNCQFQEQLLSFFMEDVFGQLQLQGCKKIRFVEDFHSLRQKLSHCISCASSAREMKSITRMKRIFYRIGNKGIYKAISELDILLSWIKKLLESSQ


Experiments:
Assay in all cases: SPR; cytokine immobilised on ProteOn GLH sensor chip by amine coupling (9,000-14,000 RU); S100P (wild type or mutant) as analyte, 62 nM-16 µM; 25 °C; 10 mM HEPES, 150 mM NaCl, 1 mM CaCl2, 0.05% TWEEN 20, pH 7.4; heterogeneous ligand model (two ligand populations), one-site model for IL-13; values averaged over analyte concentrations (n = 3-5)
Conditions in all cases: both partners purified
Interleukin-21 = molecular target: T4, Interleukin-21 (human, UniProt Q9HBE4 25-162)
T4 construct: Interleukin-21, human, UniProt Q9HBE4; see the manufacturer's catalogue number; also called IL-21; source: bought: PeproTech (source E. coli)

Interleukin-31 = molecular target: T1, Interleukin-31
Interleukin-35 = molecular target: T2, Interleukin-35
Interleukin-10 = molecular target: T5, Interleukin-10 (human, UniProt P22301 19-178)
T5 construct: Interleukin-10, human, UniProt P22301; see the manufacturer's catalogue number; also called IL-10; source: bought: PeproTech (source E. coli)

Interleukin-26 = molecular target: T3, Interleukin-26
Interleukin-13 = molecular target: T6, Interleukin-13 (human, UniProt P35225 25-146)
T6 construct: Interleukin-13, human, UniProt P35225; see the manufacturer's catalogue number; also called IL-13; source: bought: PeproTech (source E. coli)

Interleukin-15 = molecular target: T7, Interleukin-15 (human, UniProt P40933 49-162)
T7 construct: Interleukin-15, human, UniProt P40933; see the manufacturer's catalogue number; also called IL-15; source: bought: PeproTech (source E. coli)
T7 sequence (P40933 49-162): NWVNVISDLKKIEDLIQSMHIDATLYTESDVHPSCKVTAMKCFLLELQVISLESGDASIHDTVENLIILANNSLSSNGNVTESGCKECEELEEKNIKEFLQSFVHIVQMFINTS

T5 sequence (P22301 19-178): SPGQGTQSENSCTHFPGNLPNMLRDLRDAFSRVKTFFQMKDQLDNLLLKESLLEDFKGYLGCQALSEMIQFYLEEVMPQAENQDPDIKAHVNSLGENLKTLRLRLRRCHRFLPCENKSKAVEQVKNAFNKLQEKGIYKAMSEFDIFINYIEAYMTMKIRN
T4 sequence (Q9HBE4 25-162): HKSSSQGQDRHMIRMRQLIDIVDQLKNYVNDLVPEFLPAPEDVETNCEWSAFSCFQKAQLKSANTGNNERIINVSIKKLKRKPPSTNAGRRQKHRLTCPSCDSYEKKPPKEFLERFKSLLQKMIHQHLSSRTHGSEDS
T6 sequence (P35225 25-146): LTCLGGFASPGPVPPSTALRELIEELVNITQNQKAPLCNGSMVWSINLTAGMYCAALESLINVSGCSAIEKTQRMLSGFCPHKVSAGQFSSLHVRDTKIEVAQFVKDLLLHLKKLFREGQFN

Binder | Kd1 (heterogeneous ligand model, population 1) (Interleukin-21) [nM] | Kd2 (heterogeneous ligand model, population 2; column head printed as Kd1) (Interleukin-21) [nM] | Kd1 (heterogeneous ligand model, population 1) (Interleukin-31) [nM] | Kd2 (heterogeneous ligand model, population 2; column head printed as Kd1) (Interleukin-31) [µM] | Kd (Interleukin-35) [µM] | Kd1 (heterogeneous ligand model, population 1) (Interleukin-10) [µM] | Kd2 (heterogeneous ligand model, population 2; column head printed as Kd1) (Interleukin-10) [µM] | Kd (Interleukin-26) [µM] | Kd (Interleukin-13) [µM] | Kd1 (heterogeneous ligand model, population 1) (Interleukin-15) [nM] | Kd2 (heterogeneous ligand model, population 2; column head printed as Kd1) (Interleukin-15) [nM] | Kd (Interleukin-21) [µM] | Kd (Interleukin-31) [µM] | Kd (Interleukin-10) [µM] | Kd (Interleukin-15) [µM]
Human S100P mutant F89A (natural protein, S100P protein, human, recombinant, with F89A; source: E. coli, prepared as previously described [28]) MTELETAMGMIIDVFSRYSGSEGSTQTLTKGELKVLMEKELPGFLQSGKDKDAVDKLLKDLDANGDAQVDFSEFIVFVAAITSACHKYAEKAGLK | 401 | 950 | 202 | 1.18 | > 100 | 4.74 | 6.05 | > 100 | > 100 | 157 | 283 | – | – | – | –
Human S100P mutant Δ42–47 (lacks PGFLQS sequence in the 'hinge') (natural protein, S100P protein, human, recombinant, with residues 42-47 (PGFLQS) deleted; source: E. coli, prepared as previously described [28]) MTELETAMGMIIDVFSRYSGSEGSTQTLTKGELKVLMEKELGKDKDAVDKLLKDLDANGDAQVDFSEFIVFVAAITSACHKYFEKAGLK | – | – | – | – | > 10 | – | – | > 100 | > 100 | – | – | > 100 | > 100 | > 100 | > 100
